The results in this text go back to paper PMC11055898 (2024).

Assay [1] concerns the target T1, human CD64 (FcgRI) (human, UniProt P12314 16-374, biotin (biotinylated Fc receptors)). Briefly: SPR. In general terms: In SPR one partner is held on a chip, and binding of the other changes the refractive index at the surface.
Assay [2] has as its target T1, human CD64 (FcgRI). Briefly: SPR. This is another data set of the same source.
Assay [3] deals with mouse CD16-2. The experiment in a line: SPR.
In assay [4] the target is mouse CD64. The experiment in a line: SPR.
The target in assay [5] is mouse CD16. Briefly: SPR.
The target of assay [6] is mouse CD16-2. Briefly: SPR. This is another data set of the same source.
For assay [7], the target named is mouse CD64. Briefly: SPR. This is another data set of the same source.
Assay [8] deals with mouse CD16. The experiment in a line: SPR. This is another data set of the same source.
Assay [9] concerns the target human FcRn. The experiment in a line: SPR; pH 6.2.
Assay [10] addresses human FcRn. The experiment in a line: SPR; pH 6.2. This is another data set of the same source.

T1 sequence (P12314 16-374): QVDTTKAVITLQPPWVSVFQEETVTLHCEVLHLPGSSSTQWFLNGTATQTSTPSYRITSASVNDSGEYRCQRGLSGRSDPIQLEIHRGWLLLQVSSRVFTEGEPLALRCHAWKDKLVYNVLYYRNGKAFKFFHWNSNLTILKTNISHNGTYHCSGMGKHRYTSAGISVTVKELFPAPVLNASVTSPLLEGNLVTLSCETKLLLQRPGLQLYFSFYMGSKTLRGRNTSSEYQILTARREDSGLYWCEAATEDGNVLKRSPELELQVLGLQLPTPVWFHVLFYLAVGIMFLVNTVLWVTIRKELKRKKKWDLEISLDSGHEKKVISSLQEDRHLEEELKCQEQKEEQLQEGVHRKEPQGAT

B1: Ab11 IgGh47 (antibody)
chain 1: QVTLKESGPVLVKPTETLTLTCTVSGFSLSNAKMGVSWIRQPPGKALEWLAHIFSNDEKSYSTSLKSSLTISKDTSKSQVVLTMTNMDPVDTATYYCARLLWFGGNYFDYWGQGTLVTVSS
chain 2: not shown
Turning to B1, the koff with human CD64 (FcgRI) [1] is 0.00017 s⁻¹; with mouse CD16-2 [3], 0.0018 s⁻¹; with mouse CD64 [4], 0.00083 s⁻¹; with mouse CD16 [5] it was 0.00074 s⁻¹; with human FcRn [9], 0.00048 s⁻¹. For the same molecule, the Kd in the assay with human CD64 (FcgRI) [2] came to 2.1 nM; with mouse CD16-2 [6] it was 24 nM; with mouse CD64 [7], 7 nM; with mouse CD16 [8], 15 nM; with human FcRn [10] it was 7.1 nM.

The term koff denotes the first-order rate constant of dissociation. Read a low koff as slow dissociation. As usually defined, the Kd is the constant that tells how readily two partners part at equilibrium. Read a high Kd as weaker binding.
